Assay results published in the supplement of paper PMC9170038.

Test system: MS2 coat protein
Experiment: apparent KD of MS2 coat protein; designed switch direction (-1 OFF switch, 1 ON switch): 1; higher = weaker reporter binding
How it was run: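 RNA switches sharing common flanks were transcribed by stalled E. coli RNA polymerase on Illumina chips. A doubling series of SNAP-549-labelled MS2 coat protein, from 0.7 or 1.5 nM to 3 µM, was applied in Tris-HCl pH 7.5 buffer with KCl, MgCl2, BSA, DTT, tRNA and Tween-20. Each step lasted 0.8–1.5 h at the bottom of the series and 10–20 min at the top. Normalised cluster fluorescence was curve-fitted, giving apparent KD as the per-design median over clusters.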

[1] = input ligand: microRNA oligo, concentration not stated
[2] = Eterna round: R95, input ligand: FMN 200 uM
[3] = Eterna round: R95, input ligand: microRNA oligo, concentration not stated
[4] = Eterna round: R95, input ligand: none

Row | Sequence | apparent KD of MS2 coat protein [1] [nM] | apparent KD of MS2 coat protein (input ligand: FMN 200 uM) [nM] | apparent KD of MS2 coat protein (input ligand: none) [nM] | apparent KD of MS2 coat protein [2] [nM] | apparent KD of MS2 coat protein [3] [nM] | apparent KD of MS2 coat protein [4] [nM]
1 | UAAAUAAUGUAAGGAUAUACAUGAGGAAUUCUCGUAGAAGGUACAUGACAUGAGGAUCACCCAUGUAUCGCUCAGUAGAGCGUA [Mat - Same State NG 1 - JL mod - D27] (Eterna round: R96, puzzle: Same State NG 1) | 48.3 |  |  |  |  | 
2 | CUGAGCAAUCGAGGAUAUCACGUCGAAUAGACGUGAGAAGGCGAUCAUAACAUGAGGAUCACCCAUGUAUUACAUGAAGCUCAG [SSNG1/4-A1] (Eterna round: R96, puzzle: Same State NG 1) | 12.8 | 11.7 | 16.2 |  |  | 
3 | AGGCCACCGGAAGGAUAUGGCACCUUAUUGGUGCCAGAAGGUCCAACAUGAGGAUCACCCAUGUGGGUGGGUUCUAAUGAACAU [Fiskers NG1 - 2] (Eterna round: R96, puzzle: Same State NG 1) | 37.6 | 76.5 | 47.9 |  |  | 
4 | AAAAAACAUGAGGAUCACCCAUGUCAAAAGACAUGAGGAUAUGUACAGACUUCGGUCUGUACAGAAGGCAUGAAAA [salish99_ss1_r3_093] (Eterna round: R96, puzzle: Same State 1) | 359 |  |  |  |  | 
5 | AUUACUAAUGCAGGAUAUGAUUAACAUGAGGAUCACCCAUGUGGUGUUGUGAGUAAGGAGAGUGAUCAGAAGGGCAUUUUUUUU [JMF's solution 29] (Eterna round: R96, puzzle: Same State NG 2) | 362 | 518 | 325 |  |  | 
6 | UCAACUUCUUUUAGUGUGUUGCCAGUUUUACAUGAGGAUCACCCAUGUUAAGUAUUGUGGUAUUUUGUUCGUCUUAA [JR_SHM208A_Sub073] (puzzle: Sensor for hsa-mir-208a) |  |  |  | 15.6 | 14.3 | 16.3
7 | GUGCUCGUGUGAGGAUAUGCUGCCGGGUCGGCUGCAGAAGGUACUAUUAUACAUGAGGAUCACCCAUGUCGCUUUUCUCCGGUG [salish99_SSNG1_r04_918] (Eterna round: R96, puzzle: Same State NG 1) | 34.1 |  |  |  |  | 
8 | ACAUGAGACCAAGGAUAUGUUGUACCUACAUGUGACAUGAGGAUCACCCAUGUGGUAAGUAUGAGACAGAAGGUGGAGAUAUGU [Equivalence 27 - Jieux - Same State NG 2] (Eterna round: R96, puzzle: Same State NG 2) | 44.3 | 16.9 | 33.2 |  |  | 
9 | GAGGAUGAUUUACAGGAUAUAUAGGAGAUGACAUGAGGAUCACCCAUGUAAGAGAGAGGAGGGAGAUAGAAGGGUAAGGGAUGUG [JR_SS2_Sub42] (puzzle: Same State 2) |  |  |  | 44.3 | 42.2 | 59.5
10 | GAGUAGUUAAAAGGAUAUUGAUUAUUGUAGGAUCAAGAAGGUUUUAACAUGAGGAUCACCCAUGUAGGACUAUUCCUGUGUAUC [Parity 90 - Jieux - Same State NG 1] (Eterna round: R96, puzzle: Same State NG 1) | 12 |  |  |  |  | 
11 | GGUUGUUAGUGAGGAUAUACGUACACUCUACAUGAGGAUCACCCAUGUUUUGCCCUUGAUUGUUGGUAGAAGGCACUUGGUUAU [JR_SSNG2_Sub050] (Eterna round: R96, puzzle: Same State NG 2) | 84.7 | 40.7 | 87.3 |  |  | 
12 | UAUUAAGCUGUAGGAUAUCUAGGAUAUGGACGAGGAUCACCCGAGCAGCAUCAGCGCACCAGAGGAGAGAAGGACGCUUUGGAA [pwkr ssNG2 2F5 2FMN.3] (Eterna round: R96, puzzle: Same State NG 2) | 882 | 463 | 916 |  |  | 
13 | UGGAUCUAGGCUUGCCUGGGUCCAUGCUGACAUGAGGAUCACCCAUGUGCAUCCUACAAGCUUUUUGCUUGUCUGUC (puzzle: Sensor for hsa-mir-208a) |  |  |  | 60.7 | 69.7 | 51
14 | GGAGCCGGCACCGAGGAUAUUCAUAUUAAAACAUGAGGAUCACCCAUGUAGGCCAGAAGGCCUUGGGAGAAGGCGGACCGGCUCG [Xeonanis - 4] (puzzle: Same State 2) |  |  |  | 24 | 520 | 664
15 | GAAAGCAACGGAGGAUAUUCGCGUACGUUGGACGAAGAAGGCCGACAUGAGGAUCACCCAUGUACGAAUCACGCCAUAGCAUUA [Eternabot solution 12] (Eterna round: R96, puzzle: Same State NG 1) | 16.4 | 23.9 | 19.7 |  |  | 
16 | AGAGCCGGCACCGAGGAUAUUCAUAUUAAAACAUGAGGAUCACCCAUGUAGGCCAGAAGGCCUUGGGAGAAGGCGGAUCGGCUCG [Xeonanis - 7] (puzzle: Same State 2) |  |  |  | 28.3 | 524 | 827
17 | AUAUUCUUCCGCGACACCCACAUGAGGAUCACCCAUGUUGAACAGGAUAUGUAGUUCAUCUGAACACAGAAGGGUUAAAGGAAG [Eternabot solution 28] (Eterna round: R96, puzzle: Same State NG 3) | 16.5 | 16.5 | 20 |  |  | 
18 | UACCAACAAAUAAAACAAGCGUGCUCGUCACAUGAGGAUCACCCAUGUUUAAACGCUGUACCUACAUCCUCAGCGCC [Usatqulale] (puzzle: Sensor for hsa-mir-208a) |  |  |  | 38.9 | 31.3 | 52
19 | GCUAGAAAUAAUGCCAACAUGAGGAUCACCCAUGUAUGUUGGCAGGAUAUCGUAUGCAAAGCAUACGAGAAGGGCUAAACUAGC [Mat - Same State NG 3 - JL Mod - D9] (Eterna round: R96, puzzle: Same State NG 3) | 190 | 217 | 231 |  |  | 
20 | UGGUACAUGGGAGGAUAUCAUGCAAACAUGAGGAUCACCCAUGUAACCAUGGAGACAUGGAUAUAUGAGAAGGCCCAUGUACCU [JL SSNG1 3.51] (Eterna round: R96, puzzle: Same State NG 2) | 19.6 | 11 | 27.9 |  |  | 
21 | GUGGUCUGACAUGAGGAUCACCCAUGUGGAAUAAAUACGGGUUAGGAUAUCUUGAGGAUCACCCAAGAGAAGGGAUGGAUUGUU (Eterna round: R96, puzzle: Same State NG 3) | 54.7 | 83.9 | 80.8 |  |  | 
22 | AGCUAUUACGAAGGAUAUUCUGACAUGAGGAUCACCCAUGUCUUCAUGAUUUAUUGUGAUCACAUGAAGAAGGUCGUACUAACA [SameState NG2 #24] (Eterna round: R96, puzzle: Same State NG 2) | 140 |  |  |  |  | 
23 | AUAAGUUCGAUGCUCGUCUCUCCGUACAAACAUGAGGAUCACCCAUGUGAUUGAGCAGUAGCCCAAUCAGUAUGGCC [Tileus] (puzzle: Sensor for hsa-mir-208a) |  |  |  | 45.1 | 23.9 | 47.9
24 | GUGGUGAAUUAAGGAUAUCGAGUCUAGAUGUUAAACAUGAGGAUCACCCAUGUGGGUUGCGGUGUCGAGAAGGUGGUUUACGGG [salish99_SSNG2_r04_510] (Eterna round: R96, puzzle: Same State NG 2) | 84 | 63.2 | 72.3 |  |  | 
